The source of these data is patent US20170137512A1.

In experiment [1] the target is human Kv1.3 (Homo sapiens), P22001.
For experiment [2] the target is unchanged. This is another data set of the same source.
Experiment [3] has the same target. As to the kind of experiment: cell-based or functional assay.
Experiment [4] has the same target. As to the kind of experiment: cell-based or functional assay. The source holds these as a separate data set.
Experiment [5] deals with T1, cyno Kv1.3 (Macaca fascicularis).
T1 chain: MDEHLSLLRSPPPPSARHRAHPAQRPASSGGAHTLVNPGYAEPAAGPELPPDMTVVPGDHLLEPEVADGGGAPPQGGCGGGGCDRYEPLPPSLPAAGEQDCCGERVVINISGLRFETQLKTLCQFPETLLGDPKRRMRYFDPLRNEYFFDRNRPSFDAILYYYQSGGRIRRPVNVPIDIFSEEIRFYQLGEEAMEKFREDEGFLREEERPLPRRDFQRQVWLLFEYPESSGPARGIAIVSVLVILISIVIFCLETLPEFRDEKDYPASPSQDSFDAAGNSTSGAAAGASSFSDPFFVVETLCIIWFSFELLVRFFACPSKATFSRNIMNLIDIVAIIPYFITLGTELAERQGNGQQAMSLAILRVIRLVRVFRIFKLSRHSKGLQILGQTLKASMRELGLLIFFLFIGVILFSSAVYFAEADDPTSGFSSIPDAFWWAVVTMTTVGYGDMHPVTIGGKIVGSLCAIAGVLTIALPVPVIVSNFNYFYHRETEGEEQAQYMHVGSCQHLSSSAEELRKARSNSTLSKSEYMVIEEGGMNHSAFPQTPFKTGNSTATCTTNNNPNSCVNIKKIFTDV

Experiment [6] concerns the target human Kv1.3 (Homo sapiens) (UniProt P22001). The experiment is described as follows: cell-based or functional assay.
The target in experiment [7] is T1, cyno Kv1.3 (Macaca fascicularis). The experiment is described as follows: titration of radiolabeled margatoxin on CHO-cyKv1.3 cells.

Where two headings read alike, the source gives them in different places.

B1: ShK-1aJ (Smartox, #08SHK001), P29187 1-35 (peptide)
peptide: RSCIDTIPKSRCTAFQCKHSMKYRLSFCRKTCGTC
modifications: not checked
With B1, the IC50 (read off the curve) in experiment [1] was found to be 10 nM. Also, the % inhibition – broadly, the change of the read-out against control, counted positive when it falls – in experiment [2] was 102%. In experiment [3], the Average IC50, Kv1.3 current, IonFlux automated patch clamp, HEK293H cells was determined as 0.076 nM; the Average IC50, Kv1.3 current, IonWorks perforated patch clamp, CHL cells worked out at 0.4 nM; the IC50, CD25 read out, CCR7-CD45RA- T cells stimulated with anti-CD3 came out at 0.27 nM; the IC50, CD25 read out, T cell activation assay stood at 0.73 nM. Besides, in experiment [3], the IC50, CD25 read out, T cell activation assay, with 10 µM HSA is 0.038 nM; the IC50, IFNγ production, T-cell activation assay turned out to be 0.041 nM; the IC50, IFNγ read out, CCR7-CD45RA- T cells stimulated with anti-CD3 came to 0.076 nM; the IC50, IFNγ read out, T cell activation assay is 0.14 nM. In addition, the IC50, IFNγ read out, T cell activation assay, with 10 µM HSA in experiment [3] came out at 0.027 nM. Also, in experiment [4], the IC50, CD25 read out, CCR7-CD45RA- T cells stimulated with anti-CD3 was 0.22 nM and the IC50, IFNγ read out, CCR7-CD45RA- T cells stimulated with anti-CD3 amounted to 0.065 nM. The IC50 (commonly the concentration needed to halve the response being measured) in experiment [5] stood at 0.24 nM.

B2: A0194016B04 (VHH, not shown: small tags and cut ends)
VHH: EVQLVESGGGLVQAGGSLRLSCSASGLLFSVNSAGWYRQAPGKQRDFVARIRSGGSTNYADSVKGRFTISRDKATNTLYLQMNNLKPEDTAVYYCSSWRTEAYEYWGRGTLVTVSS
Take B2: in experiment [6], the Average IC50, Kv1.3 current, IonFlux automated patch clamp, HEK293H cells amounted to 84 nM and the Average IC50, Kv1.3 current, IonWorks perforated patch clamp, CHL cells is 34 nM.

B3: A0194020A06 (VHH, not shown: small tags and cut ends)
VHH: EVQLVESGGGLVQAGGSLGLSCSASGLLFSRNSAGWYRQAPGKRREFVARIRMGGSINYADSVKGRFTVSRDNAKNMMYLQMNDLKPEDTAVYFCSGWREGFYEYWGQGTLVTVSS
In experiment [6], B3 gave an Average IC50, Kv1.3 current, IonFlux automated patch clamp, HEK293H cells of 13.4 nM; an IC50, CD25 read out, CCR7-CD45RA- T cells stimulated with anti-CD3 of 36 nM; an IC50, IFNγ read out, CCR7-CD45RA- T cells stimulated with anti-CD3 of 30 nM.

B4: unlabeled margatoxin (Alamone labs, Cat RTM-325), P40755 1-39 (peptide)
peptide: TIINVKCTSPKQCLPPCKAQFGQSAGAKCMNGKCKCYPH
modifications: not checked
Molecule B4 gave an IC50, IFNγ read out, CCR7-CD45RA- T cells stimulated with anti-CD3 in experiment [3] of 0.094 nM. The same molecule showed an IC50 in experiment [5] of 0.24 nM.

B5: 125I-margatoxin (Perkin Elmer, NEX083), P40755 1-39 (peptide)
peptide: B4 peptide
modifications: not checked
As to B5, in experiment [7], the EC30 (commonly the point of the concentration-response curve where the effect stands at 30%) was found to be 0.15 nM.
